Paper PMC4110038, “The CD27L and CTP1L Endolysins Targeting Clostridia Contain a Built-in Trigger and Release Factor” (PLoS Pathogens, 2014)
Where a chain is given by its changes, count along the chain named. In names and notes the source's numbering stands.

B1: CD27L endolysin C238R mutant, full length (enzyme, bacteriophage ΦCD27, UniProt B6SBV8 1-270, looked up)
chain: MKICITVGHSILKSGACTSADGVVNEYQYNKSLAPVLADTFRKEGHKVDVIICPEKQFKTKNEEKSYKIPRVNSGGYDLLIELHLNASNGQGKGSEVLYYSNKGLEYATRICDKLGTVFKNRGAKLDKRLYILNSSKPTAVLIESFFCDNKEDYDKAKKLGHEGIAKLIVEGVLNKNINNEGVKQMYKHTIVYDGEVDKISATVVGWGYNDGKILICDIKDYVPGQTQNLYVVGGGAREKISSITKEKFIMIKGNDRFDTLYKALDFINR
notes: CD27L endolysin of bacteriophage ΦCD27, made by site-directed mutagenesis of pET15b-cd27l; Side-by-side dimer interface mutant; also called CD27L (C238R); CD27L C239R (as printed in the SEC-RALS methods); source: E. coli BL21(DE3), purified as wild-type CD27L (Ni-NTA, SEC); not shown: His tag, N-terminal, kept
B2: CD27L endolysin, full length, wild type (enzyme, bacteriophage ΦCD27, UniProt B6SBV8 1-270, looked up)
chain: B1 chain with R238C
notes: CD27L endolysin of bacteriophage ΦCD27 (N-acetylmuramoyl-L-alanine amidase domain, linker, C-terminal domain); 270 residues by the construct name CD27L180-270; in pET15b with an N-terminal His tag and a thrombin site; Undergoes continuous autocleavage at M186, so samples also hold the catalytic domain and the C-terminal fragment; also called CD27L (wild-type); recombinant CD27L endolysin; source: …
B3: CD27L endolysin M186P mutant, full length (enzyme, bacteriophage ΦCD27, UniProt B6SBV8 1-270, looked up)
chain: B1 chain with M186P, R238C
notes: CD27L endolysin of bacteriophage ΦCD27, made by site-directed mutagenesis of pET15b-cd27l; Cleavage-site mutant; autocleavage abolished; tends to aggregate; also called CD27L M186P; source: E. coli BL21(DE3), purified as wild-type CD27L (Ni-NTA, SEC)
B4: Proteolytic fragment of CD27L (C-terminal domain released by autocleavage at M186) (domain or fragment, bacteriophage ΦCD27, UniProt B6SBV8 186-270, looked up)
chain: MYKHTIVYDGEVDKISATVVGWGYNDGKILICDIKDYVPGQTQNLYVVGGGACEKISSITKEKFIMIKGNDRFDTLYKALDFINR
notes: CD27L endolysin of bacteriophage ΦCD27, autoproteolytic C-terminal fragment; N-terminal residue identified as M186 by LC-MS; the protein ends at 270 by the construct name CD27L180-270; About 10 kDa; The N-terminal His tag of the parent stays on the catalytic domain; also called CD27L proteolytic fragment; C-terminal domain of CD27L; source: autoproteolytic product of full-length CD27L made in E. …

Columns and labels:
[1] = target: CTP1L endolysin, full length, wild type (bacteriophage that targets C. tyrobutyricum (phage not named)); test: SEC-RALS/RI/UV (size exclusion chromatography with right-angle light scattering); S75 10/300 GL column, 20 mM HEPES pH 7.4, 500 mM NaCl, room temperature, 75 µL injected at 6.37, 7.15 and 6.17 mg/mL, 0.4 mL/min
[2] = target: the molecule itself; test: SAXS; CD27L C238R, 10°C, 20 mM Tris, 500 mM NaCl pH 7.4, 1.0-8.5 mg/mL; volume fractions by OLIGOMER on merged data
[3] = target: the molecule itself; test: SEC-RALS/RI/UV (size exclusion chromatography with right-angle light scattering); S75 10/300 GL column, 20 mM HEPES pH 7.4, 500 mM NaCl, room temperature, 75 µL injected at 6.37, 7.15 and 6.17 mg/mL, 0.4 mL/min
[4] = target: the molecule itself; test: crystal structure; crystals grown from full-length CD27L that held only the proteolytic C-terminal fragment; six copies in the asymmetric unit; 10-20% PEG 4000, 20 mM Tris pH 8.0; space group P212121
[5] = target: B2; test: SEC-RALS/RI/UV (size exclusion chromatography with right-angle light scattering); S75 10/300 GL column, 20 mM HEPES pH 7.4, 500 mM NaCl, room temperature, 75 µL injected at 6.37, 7.15 and 6.17 mg/mL, 0.4 mL/min; conditions: both partners purified

## CTP1L endolysin, full length, wild type (enzyme)
[1]
  stoichiometry N: 2

## B1
[2]
  stoichiometry N: 2

## B2
[3]
  stoichiometry N: 2

## B3
[3]
  stoichiometry N: 2

## B4
[4]
  binding result: binds
[5]
  binding result: binds
